Usually Km stands for the substrate concentration at which the rate is half of its maximum.

Substrate in this series: C[C@H](O)C(=O)O
The experiment in a line: cells, lysate or membranes. Conditions: pH 7.3, 37 °C, 2 min uptake, 1-100 µM L-lactate, labelled compound (14C tracer spike).

B1: Slc16a13 (SLC16A13/MCT13) (Mus musculus) (protein)
chain: MVRRAEPPDGGWGWMVVLSAFFQSALVFGVLRSFGVFFVEFVAAFEEQAARVSWIASIGIAVQQFGSPIGSALSTKLGPRPVVMTGGILAALGMLLASFATSLTHLYLSIGLLSGSGWALTFTPTMACLSRYFSQRRSLAMGLALTGVGISSFAFAPLFQWLINNYAWRGALLLVSALSLHLMACGALLRPLSLTEDAAVGGPGAQITSLLRHGPFLRYTAALTLINTGFFIPYVHLVAHLQDLGWDPLPAAFLLSVAAVSDLVGRVASGWLGDAVPGPVARLLMLWTTLTGVSLALFPVAQASSTLVVLAVAYGFTSGALTPVAFSVLPELVGTGRIYCGMGLVQMIESIGGLLGAPLSGYLRDVTGNYTASFVVAGAFLLAGSGVLLTLPHFFSCISVSTSRPQDLVIEASDTKIPLPKEEGLGEN
For the protein B1, the Km stood at 0.47 ± 0.35 µM.

The values above are taken from article PMC8249653.
